These results are taken from article PMC7094256 (Febs Letters, 2005).

B2: GST-tagged human heterogeneous nuclear ribonucleoprotein A1 (natural protein)
chain: MSKSESPKEPEQLRKLFIGGLSFETTDESLRSHFEQWGTLTDCVVMRDPNTKRSRGFGFVTYATVEEVDAAMNARPHKVDGRVVEPKRAVSREDSQRPGAHLTVKKIFVGGIKEDTEEHHLRDYFEQYGKIEVIEIMTDRGSGKKRGFAFVTFDDHDSVDKIVIQKYHTVNGHNCEVRKALSKQEMASASSSQRGRSGSGNFGGGRGGGFGGNDNFGRGGNFSGRGGFGGSRGGGGYGGSGDGYNGFGNDGSNFGGGGSYNDFGNYNNQSSNFGPMKGGNFGGRSSGPYGGGGQYFAKPRNQGGYGGSSSSSSYGSGRRF

Assay [1] deals with B2. As to the kind of experiment: SPR.
The target of assay [2] is His-tagged nucleocapsid protein of SARS coronavirus (SARS coronavirus, UniProt P59595 1-422). In words: SPR. (In general: In SPR one partner is held on a chip, and binding of the other changes the refractive index at the surface.)
Chain of His-tagged nucleocapsid protein of SARS coronavirus (P59595 whole entry): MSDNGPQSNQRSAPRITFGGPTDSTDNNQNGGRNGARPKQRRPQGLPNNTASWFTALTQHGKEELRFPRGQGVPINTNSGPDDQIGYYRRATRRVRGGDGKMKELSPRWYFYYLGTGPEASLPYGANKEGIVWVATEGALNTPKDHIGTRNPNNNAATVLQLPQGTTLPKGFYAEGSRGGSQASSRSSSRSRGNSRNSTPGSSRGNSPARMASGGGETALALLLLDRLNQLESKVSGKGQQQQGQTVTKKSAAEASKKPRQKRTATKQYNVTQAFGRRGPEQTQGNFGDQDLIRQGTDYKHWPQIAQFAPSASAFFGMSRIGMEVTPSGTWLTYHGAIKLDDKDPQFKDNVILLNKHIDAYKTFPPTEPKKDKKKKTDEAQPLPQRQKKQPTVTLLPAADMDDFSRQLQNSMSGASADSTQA

B1: synthesized peptide ASSRSSSRSRGNSRN (aa 183–197 of SARS_N) (peptide)
peptide: ASSRSSSRSRGNSRN
Usually Kd stands for the constant that tells how readily two partners part at equilibrium. Read a low Kd as tighter binding. As to B1, the dissociation constant Kd in assay [1] was found to be 148 ± 12 µM.
Broadly, the koff is the first-order rate constant of dissociation. A low value points to slow dissociation. As usually defined, the kon is a measure of how fast the partners come together. Read a low kon as slower complex formation. Consider B2, for which, in assay [2], the dissociation constant (Kd) came out at 0.35 ± 0.02 µM, the koff stood at 0.00206 s⁻¹ and the on-rate (kon) was determined as 5830 M⁻¹ s⁻¹.
